# According to publication PMC9891502:
# Molecular target: CMV gB ectodomain protein
# Assay: ELISA
# Conditions: parent: 171.7
row,Substance,EC50 [µg/mL]
1,TRL345 unmutated common ancestor (UCA) mAb L:N53D,0.0197
2,TRL345 unmutated common ancestor (UCA) mAb H:Y52aN,0.0851
3,TRL345 unmutated common ancestor (UCA) mAb H:Y52aN; L:S30G; L:N53D,0.0077
4,TRL345 unmutated common ancestor (UCA) mAb H:Y52aN; L:N53D,0.0094
5,TRL345 unmutated common ancestor (UCA) mAb L:S30G,0.0127

# Molecular target: full-length gB (Towne strain) expressed on HEK293T cells (UniProt P13201)
# Assay: flow cytometry on cells
# Conditions: three-point, 10-fold mAb serial dilution starting at 0.1 μg/mL; parent: 94
row,Substance,other: AUC [AUC]
1,TRL345 unmutated common ancestor (UCA) mAb L:N53D,90
2,TRL345 unmutated common ancestor (UCA) mAb H:Y52aN; L:S30G,124
3,TRL345 unmutated common ancestor (UCA) mAb H:A33N; H:Y52aN; L:N53D,143
4,TRL345 unmutated common ancestor (UCA) mAb L:S30G; L:N53D,107
5,TRL345 unmutated common ancestor (UCA) mAb H:A33N; L:N53D,180
6,TRL345 unmutated common ancestor (UCA) mAb H:A33N; H:Y52aN,140
7,TRL345 unmutated common ancestor (UCA) mAb H:Y52aN; L:N53D,109
8,TRL345 unmutated common ancestor (UCA) mAb H:A33N; H:Y52aN; L:S30G,144
9,TRL345 unmutated common ancestor (UCA) mAb H:A33N; L:S30G; L:N53D,138
10,TRL345 unmutated common ancestor (UCA) mAb H:A33N; L:S30G,207
